B1: Endonuclease CUE2, residues 9 to 47; numbered along this chain, P36075 (parent)
chain: HESKLSILMDMFPAISKSKLQVHLLENNNDLDLTIGLLL

Variants of: B1
Assay: abundance fitness (aPCA) (normalised: wild type 0, dead -1); higher = more abundant; growth selection in yeast, the domain comes from the species named
Conditions: Saccharomyces cerevisiae (strain ATCC 204508 / S288c)

Abundance fitness, by site and new letter:
N27: C -0.024; E -0.134; F -0.482; I -0.461
I35: F -0.75; Y -0.174; K 0.07; M -0.065; V -0.067; A -0.04; T -0.053; D -0.78; S -0.153; G -0.596; L -0.165; R 0.07; C -0.114; H -0.371; N -0.532; W -0.483; P -0.8
G36: E 0.067; F -0.14; L -0.438; N -0.054; Q 0.004; S 0.092; D 0.058; K 0.076; V -0.383; T 0.021; W -0.452; A 0.025; C -0.042; M -0.291; Y -0.447; P -0.056
L39: S 0.1; N 0.081; H -0.062; G 0.122; W -0.066; P -0.199; F -0.084; T 0.122; M 0.167; K 0.33; V -0.046; I -0.182; E 0.154; R 0.276; Q 0.132
L38: R -0.792; T -0.628; M -0.054; V -0.27; C -0.116; D -0.1; N -0.471; S -0.768; W -1.02; G -0.557; K -0.983; P -0.497; E -0.568; Q -0.664; A -0.375
E26: Q -0.151; F -0.59; V -0.257; G -0.123; W -0.639; K -0.086; T -0.113; L -0.288; D -0.139; R -0.045; N 0.381; C -0.331; M -0.176; S -0.131; A 0.047
L25: R 0.045; Q 0.073; S -0.017; P -0.952; G 0.001; M 0.043; W -0.065; V 0.039; T 0.048; E 0.041; K -0.126; N -0.333
L33: Y -0.004; W -0.4; K 0.036; G 0.031; D 0.031; Q -0.068; M -0.001; C 0.012; R 0.082; P -0.008; H -0.456; F -0.258; T -0.004; V 0.03; S -0.034; I -0.089; E 0.06; N 0.075
D30: L -0.66; Q -0.194; A -0.286; S -0.223; T -0.813; E -0.171; R -0.246; M 0.097; H -0.145; G -0.759; K -0.165; C -0.261
N28: C -0.329; K 0.104; Q -0.053; A -0.024; M -0.045; D 0.022; S 0.035; W -0.485; E 0.018; G 0.025; P -0.68; R -0.085; T -0.353; V -0.469; H -0.148
T34: V 0.008; D -0.88; A -0.092; Q -0.899; L -0.729; W -1.19; E -0.903; S -0.235; G -0.632; P -0.943; N -0.296; R -0.993; I -0.447; C -0.091; K -0.863
D32: T -0.183; N 0.07; H -0.106; A -0.124; Y -0.659; L -0.416; E -0.055; K -0.003; Q 0.032; W -0.499; R -0.091; V -0.302; G -0.082
